From patent US20190358242A1, “COMPOSITIONS, KITS, AND METHODS TO INDUCE ACQUIRED CYTORESISTANCE USING STRESS PROTEIN INDUCERS” (FRED HUTCHINSON CANCER RESEARCH CENTER, priority 2017, published 2019)
Values joined by “and” are separate entries in the source; they are usually repeats but may differ in a detail not shown here. Equal entries are not always repeated.

Legend:
HO-1 mRNA = experiment: Renal HO-1 mRNA (RT-PCR, HO-1/GAPDH) after IV myoglobin, SnPP or both; assay type: in vivo, CD-1 mice
Source text: (§1) The Glycerol Model of AKI. This is a widely used model of rhabdomyolysis-induced AKI that has been employed worldwide for 50 years. The model was used to test whether prophylactic interventions confer protection against AKI. Basically, the protocol is as follows: Male CD-1 mice (35-45 grams), obtained from Charles River Laboratories, Wilmington, Mass. were studied. Mice were maintained under standard vivarium conditions and generally housed for 1-3 weeks prior to study. The mice were placed in a cylindrical restraining cage, and then were given a tail vein injection of the test substances (see below) or test substance vehicle. The mice were then returned to their cages. Eighteen hours (hrs) later, the mice were briefly anesthetized by isoflurane inhalation, and given an intramuscular injection of hypertonic (50%) glycerol in a dose of 9 ml/Kg body weight. The dose is divided in two, with half injected into the muscle of each of the hind limbs. The mice were then returned to their cages. Eighteen hrs later, the mice were deeply anesthetized with pentobarbital (50-100 mg/Kg), the abdominal cavity was opened through a midline abdominal incision, a blood sample was obtained from the abdominal vena cava and the kidneys were resected. A kidney cross section was obtained and fixed in formalin for subsequent histologic analysis. The terminal blood samples were analyzed for BUN and creatinine, using commercially available assay kits. The remaining kidney tissue was subjected to cortical dissection, and the cortical tissues were then extracted for protein and RNA. The protein samples were saved for analysis of HO-1 levels, and the RNA samples were subjected to RT-PCR to quantify HO-1 mRNA as well as levels of other stress gene mRNAs (e.g. NGAL, haptoglobin, hemopexin, hepicidin).
(§2) Myoglobin+SnPP: To 5 mg of dry myoglobin was added 0.9 ml of PBS+0.1 ml of a stock SnPP solution (50 umole/ml). The resulting final concentrations were 5 mg/ml myoglobin+5 umoles/ml of SnPP. The tail vein was injected with 200 ul of this solution, which equals 1 mg myoglobin+1 umole SnPP. […]
[…] To confirm that the myoglobin+SnPP has a synergistic effect in inducing HO-1 mRNA and HO-1 protein levels, each of the above combinations have been administered alone via tail vein injection. […] For additional information regarding methods, see Zager et al., Am J Physiol Renal Physiol. 2014 Jul. 30. Pii.

HO-1 protein [1] = experiment: Renal cortex HO-1 protein (ELISA) after IV myoglobin, SnPP or both; assay type: in vivo, CD-1 mice; conditions: 4 hr IV; 1 mg myoglobin, 1 μmole SnPP
Source text: as §1, §2
Four hr post myoglobin vs myoglobin+SnPP vs SnPP alone experiments. To confirm that the myoglobin+SnPP has a synergistic effect in inducing HO-1 mRNA and HO-1 protein levels, each of the above combinations have been administered alone via tail vein injection. Four hrs later, the mice were sacrificed as noted above and the kidneys were harvested for assessment of HO-1 mRNA and protein levels. For additional information regarding methods, see Zager et al., Am J Physiol Renal Physiol. 2014 Jul. 30. Pii.
Given that it is just 4 hrs post injection, the mRNA increases are greater than the protein increases as protein synthesis must follow the mRNA induction-requiring more time.

haptoglobin = experiment: Haptoglobin protein expression after SQ injection of myoglobin with or without PEG; assay type: in vivo, mice; conditions: 4 hour time point after SQ injection
Method: Myoglobin+PEG: To a stock solution of 20 mg/ml Mgb in PBS was added 100 mg/ml of PEG-6000; […]. This was administered as a subcutaneous injection in the dorsal neck (250 ul total injection). For combined Mgb/PEG+SnPP, SnPP was added to the above in a concentration of 3 mg/ml.

[2] = design: species or system mice; conditions: mouse, in vivo, iv
HK-2 cells = experiment: HK-2 cell injury by MTT assay; assay type: cell-based; conditions: 10 mg/mL, 18 hr incubation
Method: HK-2 cells (a proximal tubule cell line derived from normal human kidney) were incubated in keratinocyte serum free medium either under normal (control) conditions or in the presence of 10 mg/mL horse skeletal muscle myoglobin or nitrited myoglobin (produced by equimolar Na nitrite addition to 10 mg/ml myoglobin). After 18 hr incubations, the severity of cell injury (% cell death) was assessed by MTT assay. Myoglobin induced 40% cell death (40% decrease in MTT cell uptake), compared to control incubated cells. Nitrite binding to myoglobin reduced cell death by 75%. Thus, nitrite binding is able to reduce myoglobin's cytotoxic effects.

HO-1 protein [3] = experiment: Renal cortex HO-1 protein (ELISA) after IV myoglobin, SnPP or both; assay type: in vivo, CD-1 mice; conditions: overnight (roughly 18 hrs) post IV; 1 mg myoglobin, 1 μmole SnPP
[4] = overnight (roughly 18 hrs) post IV, 1 mg myoglobin, 1 μmole SnPP

B1: myoglobin (protein, UniProt P68082 2-154, looked up)
Myoglobin: GLSDGEWQQVLNVWGKVEADIAGHGQEVLIRLFTGHPETLEKFDKFKHLKTEAEMKASEDLKKHGTVVLTALGGILKKKGHHEAELKPLAQSHATKHKIPIKYLEFISDAIIHVLHSKHPGDFGADAQGAMTKALELFRNDIAAKYKELGFQG
notes: Lyophilized horse skeletal muscle (myoglobin) (Sigma Chemicals), a heme protein
HO-1/GAPDH mRNA, Average (HO-1 mRNA; kidney, 4 hr post IV injection): 3.93
HO-1/GAPDH mRNA, individual mice (HO-1 mRNA; kidney, 4 hr post IV injection): 7.78 and 2.93 and 2.58 and 2.41
HO-1/GAPDH mRNA, Average (HO-1 mRNA; [4]): 0.58
HO-1/GAPDH mRNA, individual subjects (HO-1 mRNA; [4]): 0.71 and 0.53 and 0.51
Cortex HO-1 protein (ELISA), Average (HO-1 protein [1]): 45.4 ng HO-1/mg protein
Cortex HO-1 protein (ELISA), individual mice (HO-1 protein [1]): 40.7 ng HO-1/mg protein and 40.2 ng HO-1/mg protein and 64.7 ng HO-1/mg protein and 36.0 ng HO-1/mg protein
Haptoglobin protein expression (haptoglobin): 32.7 ± 6.3 ng/mg ng/mg protein
Plasma LDH, Average [2]: 4.47 Absorbance U LDH/ml
Cell death (decrease in MTT cell uptake) vs control incubated cells (HK-2 cells): 40%
HO-1 protein induction, Average (HO-1 protein [3]): 36.7
HO-1 protein induction, individual subjects (HO-1 protein [3]): 50.6 and 34.9 and 24.6
